For one substance, Total Bound Fluorescence results are on record in patent US20070098715A1.

The test deals with Ten-M2 endogenously expressed on human cancer cell lines (SNB-19 and others) (human) (UniProt Q9NT68). As to the kind of experiment: flow cytometry on SNB-19 cells at 4° C., Alexa647 anti-human IgG secondary. A general note: A flow cytometer gives signals particle by particle.

In the case of isotype control Ab (antibody), the Total Bound Fluorescence is 2.2.
